Assay [1] deals with T1, VEGF165 (UniProt P15692-4 27-191, biotinylated in the ELISA of Example 4 (site not stated)).
T1 construct: also called biotinylated VEGF165; soluble VEGF
The experiment in a line: SPR (ProteOn), VEGF165 immobilized, multi-trace 50-0.195 nM, 25 C.

The target in assay [2] is T2, CD3-specific binding domain (SEQ ID NO: 3) (biotinylated when used as immobilized SPR ligand (site not stated)).
T2 construct: also called α-CD3 DARPin
T2 chain: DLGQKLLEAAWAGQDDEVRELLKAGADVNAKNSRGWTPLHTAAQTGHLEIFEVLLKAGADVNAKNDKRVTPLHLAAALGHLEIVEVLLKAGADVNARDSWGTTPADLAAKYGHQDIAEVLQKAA
The experiment in a line: SPR; KD on CD3-specific binding domain (Ligand1) divided by KD on VEGF165 (Ligand2). On the technique in general: SPR reads the build-up and loss of mass on a sensor chip optically.

The target in assay [3] is T2, CD3-specific binding domain (SEQ ID NO: …). Put plainly: SPR (ProteOn), biotinylated CD3-specific binding domain immobilized, multi-trace 50-0.195 nM, 25 C.
For assay [4], the target named is T3, scCD3εγ.
T3 chain 1: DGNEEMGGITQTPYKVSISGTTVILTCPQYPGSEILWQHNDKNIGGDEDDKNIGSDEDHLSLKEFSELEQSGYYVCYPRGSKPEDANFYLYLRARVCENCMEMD
T3 chain 2: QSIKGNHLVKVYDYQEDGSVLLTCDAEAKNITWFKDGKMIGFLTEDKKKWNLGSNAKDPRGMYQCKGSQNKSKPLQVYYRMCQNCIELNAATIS
The experiment in a line: ELISA on scCD3εγ, DARPin titrated.

The target of assay [5] is T3, scCD3εγ. Put plainly: SPR, bio-scCD3εγ coated on NAD chip, DARPin 333.33-4.11 nM.
Assay [6] has as its target T1, VEGF165. The experiment in a line: ELISA: plate-bound biotinylated VEGF165, His-tagged construct titrated, no soluble VEGF, anti-His-HRP detection. For orientation: ELISA stands for enzyme-linked immunosorbent assay.
Procedure: Then a titration of the Switchdrug DARPins was applied, incubated and washed. Detection of bound his-tagged constructs was done by anti-RGS(his)4 mAb HRP conjugate, and detected by TMB substrate.

Results on 13 molecules are retold here after patent publication US20250042957A1 (Molecular Partners, published 2025).

What is called Kd is the concentration at which binding is half-saturated. A low value points to a tighter complex. As a reminder, the kon is the rate constant with which the complex forms. Read a low kon as slow association. One may read the koff as a measure of how fast the partners let go of each other. One may read the EC50 (read off the curve) as the concentration giving half of the maximal effect.

T1 sequence (P15692 other isoform, or with tags, fused parts or gaps limits assumed): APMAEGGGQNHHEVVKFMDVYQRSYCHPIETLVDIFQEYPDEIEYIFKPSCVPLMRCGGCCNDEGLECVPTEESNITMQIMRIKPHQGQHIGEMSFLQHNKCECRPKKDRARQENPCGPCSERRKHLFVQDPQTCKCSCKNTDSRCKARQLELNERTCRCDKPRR

B1: 2-in-1 DARPin 20 (SEQ ID NO: 13) (designed binder)
chain: DLDKKLLEAARAGQDDEVRILLKAGADVNAKDSTGWTPLHLAAPWGHPEIVEVLLKAGADVNAKDFQGWTPLHLAAAAGHLEIVEVLLKAGADVNAKDVYGWTPLHLAAAAGHLEIVEVLLKAGADVNAKDWLGWTPLHLAASHGHLEIVEVLLKAGADVNAQDKSGKTPADLAARAGHQDIAEVLQKAA
notes: N4C mono-domain; purified by its His-tag
On to B1, for which, in the assay with VEGF165 [1], the affinity, expressed as Kd, was 0.69 nM and the kon stood at 1.29e+06 M⁻¹ s⁻¹. Further, the “KD ratio (Ligand1/Ligand2)” value in assay [2] came out at 2.09. In assay [3], this molecule came in with a Kd of 1.44 nM, a koff of 0.0005 s⁻¹ and a kon of 350000 M⁻¹ s⁻¹.

B2: 2-in-1 DARPin 19 (SEQ ID NO: 12) (designed binder)
chain: DLDKKLLEAARAGQDDEVRILLKAGADVNAKDSTGWTPLHLAAPWGHPEIVEVLLKAGADVNAKDFKGWTPLHLAAAAGHLEIVEVLLKAGADVNAKDVYGWTPLHLAAAAGHLEIVEVLLKAGADVNAKDWLGWTPLHLAASHGHLEIVEVLLKAGADVNAQDKSGKTPADLAARAGHQDIAEVLQKAA
notes: as for B1
For B2, in the assay with VEGF165 [1], the Kd stood at 68.5 nM, the koff came to 0.0949 s⁻¹ and the kon was 1.38e+06 M⁻¹ s⁻¹. The “KD ratio (Ligand1/Ligand2)” value in assay [2] was 0.00647. Further, in assay [3], binding was characterised by a dissociation constant (Kd) of 0.44 nM, the koff stood at 0.0002 s⁻¹ and the kon worked out at 450000 M⁻¹ s⁻¹.

B3: 2-in-1 DARPin 18 (SEQ ID NO: 11) (designed binder)
chain: DLDKKLLEAARAGQDDEVRILLKAGADVNAKDSTGWTPLHLAAPWGHPEIVEVLLKAGADVNAKDFQGWTPLHLAAAAGHLEIVEVLLKAGADVNAKDVYGWTPLHIAAASGHLEIVEVLLKAGADVNAKDWLGWTPLHLAASHGHLEIVEVLLKAGADVNAQDKSGKTPADLAARAGHQDIAEVLQKAA
notes: as for B1
In the assay with VEGF165 [1], B3 yielded a Kd of 0.1 nM, a koff of 0.00012 s⁻¹ and a kon of 1.16e+06 M⁻¹ s⁻¹. Also, the “KD ratio (Ligand1/Ligand2)” value in assay [2] was determined as 17. In addition, in assay [3], the Kd was determined as 1.7 nM, the koff amounted to 0.00087 s⁻¹ and the kon came to 514000 M⁻¹ s⁻¹.

B4: 2-in-1 DARPin 24 (SEQ ID NO: 93) (designed binder)
chain: DLGKKLLQAARAGQLDEVRELLKAGADVNAKDSQGRTPLHLAAFAGHLEIVEVLLKAGADVNAKDHAGWTPLHLAAYAGHLEIVEVLVKAGADVNAKDTEGKTPLHIAAWFGHLEIVEVLLKAGADVNAKDKSGKTPLHLAARAGHLEIVEVLLKAGADVNAKDNSGQTPLHEAAWAGHLEIVEVLLKAGADVNAKNSRGWTPLHTAAQTGHLEIFEVLLKAGADVNAKNDKRVTPLHLAAALGHLEIVEVLLKAGADVNARDSWGTTPADLAAKYGHQDIAEVLQKAA
notes: Family 2, from Parent nos 3 and 4; tag not specified
As to B4, the “EC50 (read off the curve)” value with scCD3εγ [4] was around 10 nM. Moreover, in the assay with scCD3εγ [5], the Kd was determined as 4.67 nM.

B5: 2-in-1 DARPin 25 (SEQ ID NO: 94) (designed binder)
chain: DLGKKLLQAARAGQLDEVRELLKAGADVNAKDSQGRTPLHLAAFAGHLEIVEVLLKAGADVNAKDHAGWTPLHLAAYAGHLEIVEVLVKAGADVNAKDTEGKTPLHIAAWFGHLEIVEVLLKAGADVNAKDKSGKTPLHLAARAGHLEIVEVLLKAGADVNAKDNSGQTPLHLAAWAGHLEIVEVLLKAGADVNAKNSRGWTPLHTAAQTGHLEIFEVLLKAGADVNAKNDKRVTPLHLAAALGHLEIVEVLLKAGADVNARDSWGTTPADLAAKYGHQDIAEVLQKAA
notes: as for B4
With B5, the “EC50 (read off the curve)” value with scCD3εγ [4] is around 10 nM. Binding with scCD3εγ [5] was characterised by a dissociation constant (Kd) of 4.05 nM.

B6: Switchdrug DARPin 15-B (designed binder)
chain: MRGSHHHHHHGSDLDKKLLEAARAGQDDEVRILLKAGADVNAKDSTGWTPLHLAAPWGHPEIVEVLLKAGADVNAKDFQGWTPLHLAAAAGHLEIVEVLLKAGADVNAKDWLGWTPLHLAASHGHLEIVEVLLKAGADVNAQDKSGKTPADLAARAGHQDIAEVLQKAAGSPTPTPTTPTPTPTTPTPTPTGSDLGKKLLQAARAGQLDEVRELLKAGADVNAKDQYGRTPLHLAAIKGHLEIVEVLLKAGADVNAKDSLGYTPLHLAAVEGPLEIVEVLLKAGADVNAKDAYGQTPLHIAAAWGHLEIVEVLLKAVADVNAQDKSGKTPADLAARAGHQDIAEVLQKAAGSPTPTPTTPTPTPTTPTPTPTGSDLGQKLLEAAWAGQDDEVRELLKAGADVNAKNSRGWTPLHTAAQTGHLEIFEVLLKAGADVNAKNDKRVTPLHLAAALGHLEIVEVLLKAGADVNARDSWGTTPADLAAKYGHQDIAEVLQKAA
notes: also called 2-in-1 DARPin15 in Format B
For the molecule B6, in the assay with VEGF165 [6], the “EC50 (read off the curve)” value was around 10 nM.

B7: Switchdrug DARPin 15-A (designed binder)
chain: MRGSHHHHHHGSDLGKKLLQAARAGQLDEVRELLKAGADVNAKDQYGRTPLHLAAIKGHLEIVEVLLKAGADVNAKDSLGYTPLHLAAVEGPLEIVEVLLKAGADVNAKDAYGQTPLHIAAAWGHLEIVEVLLKAVADVNAQDKSGKTPADLAARAGHQDIAEVLQKAAGSPTPTPTTPTPTPTTPTPTPTGSDLGQKLLEAAWAGQDDEVRELLKAGADVNAKNSRGWTPLHTAAQTGHLEIFEVLLKAGADVNAKNDKRVTPLHLAAALGHLEIVEVLLKAGADVNARDSWGTTPADLAAKYGHQDIAEVLQKAAGSPTPTPTTPTPTPTTPTPTPTGSDLDKKLLEAARAGQDDEVRILLKAGADVNAKDSTGWTPLHLAAPWGHPEIVEVLLKAGADVNAKDFQGWTPLHLAAAAGHLEIVEVLLKAGADVNAKDWLGWTPLHLAASHGHLEIVEVLLKAGADVNAQDKSGKTPADLAARAGHQDIAEVLQKAA
notes: also called 2-in-1 DARPin15 in Format A
B7: the “EC50 (read off the curve)” value in the assay with VEGF165 [6] is around 20 nM.

B8: 2-in-1 DARPin 12 (SEQ ID NO: 7) (designed binder)
chain: DLDKKLLEAARAGQDDEVRILLKAGADVNAKDSTGWTPLHLAAPWGHPEIVEVLLKAGADVNAKDVYGWTPLHLAAAAGHLEIVEVLLKAGADVNAKDWLGWTPLHLAASHGHLEIVEVLLKAGADVNAQDKSGKTPADLAARAGHQDIAEVLQKAA
notes: N3C mono-domain; purified by its His-tag
In the assay with VEGF165 [1], B8 had a Kd of 6.66 nM, an off-rate (koff) of 0.0106 s⁻¹ and a kon of 1.59e+06 M⁻¹ s⁻¹. For the same molecule, the “KD ratio (Ligand1/Ligand2)” value in assay [2] is 0.195. In assay [3], binding was put at a Kd of 1.3 nM, the off-rate (koff) was determined as 0.00081 s⁻¹ and the kon amounted to 624000 M⁻¹ s⁻¹.

B9: 2-in-1 DARPin 15 (SEQ ID NO: 9) (designed binder)
chain: DLDKKLLEAARAGQDDEVRILLKAGADVNAKDSTGWTPLHLAAPWGHPEIVEVLLKAGADVNAKDFQGWTPLHLAAAAGHLEIVEVLLKAGADVNAKDWLGWTPLHLAASHGHLEIVEVLLKAGADVNAQDKSGKTPADLAARAGHQDIAEVLQKAA
notes: as for B8
For the molecule B9, in the assay with VEGF165 [1], the Kd is 0.02 nM, the koff turned out to be 0.0001 s⁻¹ and the kon was 4.11e+06 M⁻¹ s⁻¹. In assay [2], the “KD ratio (Ligand1/Ligand2)” value came to 59100. In assay [3], the affinity, expressed as Kd, was 1360 nM; the koff was 0.205 s⁻¹; the kon came to 151000 M⁻¹ s⁻¹.

B10: 2-in-1 DARPin 11 (SEQ ID NO: 6) (designed binder)
chain: DLDKKLLEAARAGQDDEVRILLKAGADVNAKDSTGWTPLHLAAPWGHPEIVEVLLKAGADVNAKDVYGWTPLHIAAASGHLEIVEVLLKAGADVNAKDWLGWTPLHLAASHGHLEIVEVLLKAGADVNAQDKSGKTPADLAARAGHQDIAEVLQKAA
notes: as for B8
In the assay with VEGF165 [1], B10 returned a Kd of 11.1 nM, a koff of 0.0153 s⁻¹ and a kon of 1.38e+06 M⁻¹ s⁻¹. Also, the “KD ratio (Ligand1/Ligand2)” value in assay [2] turned out to be 0.0865. In assay [3], this molecule gave a Kd of 0.96 nM, a koff of 0.00067 s⁻¹ and a kon of 691000 M⁻¹ s⁻¹.

B11: 2-in-1 DARPin 13 (SEQ ID NO: 8) (designed binder)
chain: DLDKKLLEAARAGQDDEVRILLKAGADVNAKDSTGWTPLHLAAPWGHPEIVEVLLKAGADVNAKDFYGWTPLHLAAAAGHLEIVEVLLKAGADVNAKDWLGWTPLHLAASHGHLEIVEVLLKAGADVNAQDKSGKTPADLAARAGHQDIAEVLQKAA
notes: as for B8
B11: in the assay with VEGF165 [1], the Kd was found to be 0.81 nM, the koff stood at 0.00268 s⁻¹ and the kon is 3.29e+06 M⁻¹ s⁻¹. In assay [2], the “KD ratio (Ligand1/Ligand2)” value worked out at 14.2. In addition, in assay [3], the Kd is 11.5 nM, the off-rate constant (koff) was 0.008 s⁻¹ and the kon came out at 693000 M⁻¹ s⁻¹.

B12: 2-in-1 DARPin 17 (SEQ ID NO: 10) (designed binder)
chain: DLGKKLLQAARAGQLDEVRELLKAGADVNAKDSTGWTPLHLAAPWGHPEIVEVLLKAGADVNAKDFQGWTPLHLAAAAGHLEIVEVLLKAGADVNAKDWLGWTPLHLAASHGHLEIVEVLLKAGADVNAQDKSGKTPADLAARAGHQDIAEVLQKAA
notes: as for B8
For the molecule B12, in the assay with VEGF165 [1], the Kd stood at 0.18 nM, the koff was determined as 0.00085 s⁻¹ and the kon was 4.63e+06 M⁻¹ s⁻¹. The “KD ratio (Ligand1/Ligand2)” value in assay [2] is 2180. Moreover, the Kd in assay [3] is 392 nM.

B13: 2-in-1 DARPin 23 (SEQ ID NO: 92) (designed binder)
chain: DLGKKLLQAARAGQLDEVRELLKAGADVNAKDSQGRTPLHLAAFAGHLEIVEVLLKAGADVNAKDHAGWTPLHLAAYAGHLEIVEVLVKAGADVNAKDTEGKTPLHIAAWFGHLEIVEVLLKAGADVNAKDKSGQTPLHLAAWAGHLEIVEVLLKAGADVNAKNSRGWTPLHTAAQTGHLEIFEVLLKAGADVNAKNDKRVTPLHLAAALGHLEIVEVLLKAGADVNARDSWGTTPADLAAKYGHQDIAEVLQKAA
notes: as for B4
On to B13, for which the “EC50 (read off the curve)” value in the assay with scCD3εγ [4] is around 30 nM. This molecule also registered a Kd with scCD3εγ [5] of 3.81 nM.
